Results from patent US20210238276A1 (INTEGRAL MOLECULAR, published 2021).
Changes are numbered by the printed parent chain. Blank lines part the entries; values can stand above or below the molecule they belong to.

Columns and labels:
Assay in all cases: flow cytometry, alanine-scan library in HEK-293T
[1] = biological target: T1, hsGLUT4 E345A (human, UniProt P14672 1-509)
T1 sequence: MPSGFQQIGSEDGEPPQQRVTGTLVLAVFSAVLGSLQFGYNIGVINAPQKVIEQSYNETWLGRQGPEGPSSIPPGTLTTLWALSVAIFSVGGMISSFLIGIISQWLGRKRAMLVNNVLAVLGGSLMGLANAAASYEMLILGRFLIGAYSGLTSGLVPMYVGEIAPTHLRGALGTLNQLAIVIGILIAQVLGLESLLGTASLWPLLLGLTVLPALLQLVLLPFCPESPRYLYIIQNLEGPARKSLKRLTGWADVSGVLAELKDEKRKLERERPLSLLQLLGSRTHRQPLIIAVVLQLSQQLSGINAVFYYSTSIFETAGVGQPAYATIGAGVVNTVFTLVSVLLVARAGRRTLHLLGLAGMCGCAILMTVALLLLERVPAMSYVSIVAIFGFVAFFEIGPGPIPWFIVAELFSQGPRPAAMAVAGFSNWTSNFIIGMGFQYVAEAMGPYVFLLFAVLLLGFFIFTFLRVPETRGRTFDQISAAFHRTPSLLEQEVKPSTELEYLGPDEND
Experimental: (§1) Because of the state-dependence of the isolated MAbs, we next wished to understand the mechanism by which each MAb could recognize GLUT4 in its different conformations. The residues required for binding of each MAb were determined using shotgun mutagenesis comprehensive alanine scanning (Davidson E & Doranz B J (2014) A High-Throughput Shotgun Mutagenesis Approach to Mapping B-cell Antibody Epitopes. Immunology, which is hereby incorporated by reference in its entirety). All residues of hsGLUT4 were individually mutated to alanine, with existing alanines changed to serines. Mutations were obtained for 508 of the 509 residues of GLUT4 (excluding the initiating methionine). The entire mutation library was transfected into human HEK-293T cells in a 384-well array format (one clone per well) and assessed for immunoreactivity using high-throughput flow cytometry.
(§2) HEK-293T cells were transfected by CaPO₄ with plasmids in 6-well culture plates (Falcon) at 750,000 cells/well. At 48 hours post transfection, cells were stained with anti-V5 and anti-GLUT4 MAbs (purified scFv, 2 μg/ml) followed by biotinylated goat anti-mouse or human antibody (1:500) and streptavidin-PerCP (1:500). Fluorescence was detected using an Intellicyt high-throughput flow cytometer (HTFC; Intellicyt, Albuquerque, N. Mex.). For cell permeabilization, cells were treated with saponin at 0.1% in PBS for 20 minutes. To discriminate intact (live) and permeabilized (dead) cells without the use of detergent, propidium iodide (PI) was added to HEK-293T cells at 1 ug/ml just prior to flow cytometry. Where indicated, cytochalasin B (Sigma) was used at a final concentration of 10 uM and phloretin (Sigma) was used at a final concentration of 100 uM, each added in 10% NGS for 30 minutes prior to antibody staining as well as included with the primary antibody.

[2] = biological target: T2, hsGLUT4 D506A (human, UniProt P14672 1-509)
T2 sequence: T1 sequence with A345E, D506A
Experimental: as §1, §2

[3] = biological target: T3, hsGLUT4 G65A (human, UniProt P14672 1-509)
T3 sequence: T1 sequence with G65A, A345E
Experimental: as §1, §2

[4] = biological target: T4, hsGLUT4 M158A (human, UniProt P14672 1-509)
T4 sequence: T1 sequence with M158A, A345E
Experimental: as §1, §2

B1: AB111 (Fc fusion)
scFv: ALTQPSSVSANPGETVKITCSGSGSWYGWFQQKSPGSAPVTVIYSNDKRPSDIPSRFSGSKSGSTSTLTITGVQVEDEAVYYCGNWDIFGAGTTLTVLGQSSRSSGGGGSSGGGGSAVTLDESGGGLQTPGGALSLVCKASGFTFSSHGMGWVRQAPGKGLEWVASISTGRYTFYAPAVKGRATISRDNGQSTVRLQLNNLRAEDTATYYCTKCAGLNGCGGGEIDAWGHGTEVIVSS
notes: Bivalent scFv-Fc; also called MAb AB111; not shown: Fc fragment of human IgG1, cloned in frame with the scFv
- % of binding to wild type GLUT4 [1]: 200%
- % of binding to wild type GLUT4 [2]: 158%
- % of binding to wild type GLUT4 [3]: 15%
- % of binding to wild type GLUT4 [4]: 107%

B3: AB108 (Fc fusion)
scFv: ALTQPSSVSANLGGTVKITCSGSSGSYGWYQQKAPGSAPVTLIYRNDKRPSDIPSRFSGSESGSTGTLTITGVQAEDEAVYFCGGYDSSAGYAAFGAGTTLTVLGQSSRSSGGGGSSGGGGSAVTLDESGGGLQTPGGALSLVCKASGFTFSSHGMGWVRQAPGKGLEWVGSISTGRYTFYAPAVKGRATISRDNGQSTLRLQLNNLRAEDTGTYYCTKCAGLNGCGGGEIDAWGHGTEVIVSS
notes: Bivalent scFv-Fc; also called MAb AB108; not shown: Fc fragment of human IgG1, cloned in frame with the scFv
- % of binding to wild type GLUT4 [1]: 88%
- % of binding to wild type GLUT4 [2]: 105%
- % of binding to wild type GLUT4 [3]: 1%
- % of binding to wild type GLUT4 [4]: 110%

More lines, now with the values ahead:

- % of binding to wild type GLUT4 [1]: 93%
- % of binding to wild type GLUT4 [2]: 29%
- % of binding to wild type GLUT4 [3]: 95%
- % of binding to wild type GLUT4 [4]: 95%
Molecule: 1F8 (antibody)

- % of binding to wild type GLUT4 [1]: 78%
- % of binding to wild type GLUT4 [2]: 34%
- % of binding to wild type GLUT4 [3]: 87%
- % of binding to wild type GLUT4 [4]: 126%
B2: AB101 (scFv)
scFv: ALTQPSSVSANPGETVKITCSGSSNSYGWYQQKSPGSAPVTVIYYNDKRPSDIPSRFSGSKSDSTHTLTITGVRAEDEAVYFCGSYDSTYVGIFGAGTTLTVLGQSSRSSGGGGSSGGGGSAVTLDESGGGLQTPGGTLSLVCKASGFTFSSNAMGWVRQAPGKGLEWVAGISSDGRYTKYGSAVKGRATISRDNGQSTVRLQLNNLRAEDTGTYFCAKAFGNNYRRIYAGQIDAWGHGTEVIVSS
notes: Chicken-derived clone used as a control; the four lead clones were tested as scFv-human IgG1 Fc; also called MAb AB101
